From article doi:10.1101/2022.12.06.519258 (bioRxiv, 2022) come the findings set out here.

The target of test [1] is human KRAS^G12V (residues 1-169) (human) (UniProt P01116). Kind of test: stopped-flow fluorescence kinetics.
Test [2] deals with human SOS1 (residues 564-1049), SOS1^cat (Homo sapiens, UniProt Q07889, labelled with Alexa488 for flow cytometry (SOS1-488)). Put plainly: BLI. (In general: Biolayer interferometry detects binding as a change in optical thickness at a sensor tip.)

In general, kon refers to the second-order rate constant of association. “human SOS1 (residues 564-1049), SOS1^cat (from UniProt Q07889 564-1049) (domain or fragment)”: in test [1], the fold decrease of KD1 with Nb22 against SOS1 alone is 3.1 fold, the fold increase of k1 (kon) with excess Nb22 against SOS1 alone was 4 fold, the kon worked out at 4.2e+06 M⁻¹ s⁻¹ and the ratio of k-1 (koff) with Nb14 to SOS1 alone was determined as 0.3 fold.

B1: Nanobody Nb77 (VHH)
VHH: QVQLVESGGGLVQPGGSLRLSCAASRSISSINIMGWYRQAPGKERESVASHTRDGSTDYADSVKGRFTISRDNAKNTVYLQMNSLKPEDTAVYYCTTLTGFPRIRSWGQGTQVTVSS
As usually defined, the Kd is the equilibrium constant for the complex coming apart. Read a high Kd as a looser complex. B1 showed a Kd in test [2] of 70 ± 10 nM.
